In assay [1] the target is T1, human LIGHT (hLIGHT), cell surface-expressed, full length (human, UniProt O43557 1-240).
T1 construct: also called native hLIGHT on the cell surface; EL4-hLIGHT
In words: flow cytometry on hLIGHT-transfected cells. In general terms: A flow cytometer gives signals particle by particle.

For assay [2], the target named is T2, hLIGHT SNP variant 214E-32S, cell surface-expressed on EL4 cells (human, UniProt O43557 1-240). In words: flow cytometry at 10 µg/ml antibody on EL4 SNP cell lines.
Source text: (§1) Binding was detected with goat anti-human IgG-APC secondary antibody. Isotype control human IgG was used as a negative control.
The target of assay [3] is T3, hLIGHT SNP variant 214K-32S, cell surface-expressed on EL4 cells (human, UniProt O43557 1-240). In words: flow cytometry at one antibody concentration on EL4 SNP 214K cell line.
Source text: as §1
For assay [4], the target named is T4, soluble FLAG-tagged recombinant hLIGHT (native, untreated) (human, UniProt O43557 66-240).
T4 construct: N-terminal FLAG tag followed by hLIGHT extracellular region Gly66 to Val240; also called soluble hLIGHT; FLAG-hLIGHT
T4 chain: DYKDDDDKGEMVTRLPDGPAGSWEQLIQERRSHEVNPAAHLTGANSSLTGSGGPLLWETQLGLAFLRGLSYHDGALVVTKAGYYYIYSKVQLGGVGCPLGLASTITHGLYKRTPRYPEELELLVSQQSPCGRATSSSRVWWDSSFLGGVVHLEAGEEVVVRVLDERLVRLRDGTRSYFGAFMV
Briefly: dot blot: serial dilutions of native soluble hLIGHT on PVDF, probed with 5 µg/ml antibody, chemiluminescence.
Procedure: Each blot was probed with 5 μg/ml of each primary antibody. […] The blots were washed 3× in 1×TBST followed by super SA-HRP (Amersham Biosciences, Piscataway, N.J.). Chemiluminescence was used for detection using the ECL detection kit (Amersham Biosciences, Piscataway, N.J.) and signal was visualized by exposure to X-OMAT AR imaging film (Kodak, Rochester, N.Y.). […] An anti-M2 (irrelevant antigen) antibody was used as a negative control.
Five micrograms of soluble human LIGHT was either boiled in 2×SDS sample buffer (denatured) or untreated (native), and then both were serially diluted in 6× increments. 5 μl of each hLIGHT dilution was spotted simultaneously onto hydrated 0.2 μm PVDF membranes (Invitrogen, Carlsbad, Calif.) using an 8 multi-channel pipette. […] Each blot was probed with 5 μg/ml of each primary antibody (see below). […] The blots were washed 3×in 1×TBST followed by super SA-HRP (Amersham Biosciences, Piscataway, N.J.). Chemiluminescence was used for detection using the ECL detection kit (Amersham Biosciences, Piscataway, N.J.) and signal was visualized by exposure to X-OMAT AR imaging film (Kodak, Rochester, N.Y.)

The target in assay [5] is T1, human LIGHT (hLIGHT), cell …. In words: flow cytometry on HEK 293-hLIGHT cells.
In assay [6] the target is T3, hLIGHT SNP variant 214K-32S, cell …. In words: flow cytometry dose titration on EL4 cells expressing 214K-32S.
Procedure: (§2) For FIG. 25A-25D, the geometric mean fluorescence intensity (MFI) was determined and non-linear regression analysis applied.
The target of assay [7] is T2, hLIGHT SNP variant 214E-32S, cell …. In words: flow cytometry dose titration on EL4 cells expressing the SNP variant.
Procedure: as §2
Assay [8] addresses T5, hLIGHT SNP variant 214E-32L, cell surface-expressed on EL4 cells (human, UniProt O43557 1-240).
T5 construct: also called cytoplasmic SNP
T5 chain: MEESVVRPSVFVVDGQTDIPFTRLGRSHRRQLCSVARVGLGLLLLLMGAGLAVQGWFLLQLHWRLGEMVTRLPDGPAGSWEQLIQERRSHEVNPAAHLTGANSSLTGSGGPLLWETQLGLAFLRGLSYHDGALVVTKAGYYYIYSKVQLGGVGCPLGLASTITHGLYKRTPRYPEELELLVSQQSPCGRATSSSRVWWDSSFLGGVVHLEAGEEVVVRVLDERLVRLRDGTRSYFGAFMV
The description is as above.
Procedure: as §2

B1: E63 antibody (produced by hybridoma 124 E63, ATCC Accession No. PTA-7818) (antibody, V domains shown)
VH: QVQLQESGPGLVKPSETLSLTCIVSGGSVSSGGYYWSWIRQPPGKGLEWIGYIYYSGSTNYNPSLKSRVTISVDTSKNQFSLKLSSVTAADTAVYYCARWITMFRGVGFDPWGQGTLVTVSS
VL: EIVLTQSPDFQSVTPKEKVTITCRASQSIGSSLHWYQQKPDQSPKLLIKYASQSFSGVPSRFSGSGSGTDFTLTINSLEAEDAAAYYCHQSSSLPLTFGGGTKVEIK
notes: a recombinant IgG1 version (E63G1) was also made
Take B1: the binding result in assay [1] is reported as “binds”; in assay [2] it was “binds”; in assay [3] it was “no binding (tested: 10 µg/ml)”. In addition, the “lowest limit of detection” value in assay [4] amounted to 3.9 ng.

B2: F23 antibody (produced by hybridoma 124 F23, ATCC Accession No. PTA-7728) (antibody, V domains shown)
VH: QVQLQQWGAGLLKPSETLSLTCAVYGGSFSGYYWNWIRQPPGKGLEWIGEINQYNPSLKSRVTISVDTSKNQFSLKLSSVTAADTAVYYCAREIATADKGYYGLDVWGQGTTVTVSS
VL: AIQLTQSPSSLSASVGDRVTITCRASQGISSALAWYQQKPGKAPKLLIYDASSLESGVPSRFSGSGSGTDFTLTISSLQPEDFATYYCQQFNSYPLTFGGGTKVEIK
notes: Residue ranges without leader are those stated in claim 28 (CLM-00028)
Take B2: the “lowest limit of detection” value in assay [4] worked out at 23 ng.

B3: E1 antibody (produced by hybridoma 124 E1, ATCC Accession No. PTA-7729) (antibody, V domains shown)
VH: EVQLVESGGGLVQPGGSLRLSCAASGFTFSRFNMNWVRQAPGKGLEWVSYISSSSYTIYYADSVKGRFTISRDNAKNSLDLQMNSLRDEDTAVYYCARSIAAAFDYWGQGALVTVSS
VL: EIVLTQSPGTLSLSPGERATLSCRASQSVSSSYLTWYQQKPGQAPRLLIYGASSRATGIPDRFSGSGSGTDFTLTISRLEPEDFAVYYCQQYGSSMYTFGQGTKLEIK
notes: Fully human IgG1 purified from hybridoma culture
On to B3, for which the “lowest limit of detection” value in assay [4] worked out at 23 ng.

B4: recombinant single kappa chain antibody of E1 heavy chain paired with Elkappa(B) (antibody, V domains shown)
VH: EVQLVESGGGLVQPGGSLRLSCAASGFTFSRFNMNWVRQAPGKGLEWVSYISSSSYTIYYADSVKGRFTISRDNAKNSLDLQMNSLRDEDTAVYYCARSIAAAFDYWGQGALVTVSS
VL: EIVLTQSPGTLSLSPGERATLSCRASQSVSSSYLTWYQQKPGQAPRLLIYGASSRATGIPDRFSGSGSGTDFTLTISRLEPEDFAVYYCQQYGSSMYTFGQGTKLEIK
notes: also called E1kappa(B); 124Elkappa(B)
Consider B4, for which the binding result in assay [5] is listed as “binds”; in assay [6], “no binding”; in assay [7], “binds”; in assay [8], “binds”.
